# Experimental data from patent US20140294898A1 (published 2014).
# Positions of bridges follow the written chain, without caps; N, C: chain ends. Non-standard residues stand in square brackets, D forms with d. Bip = N[C@@H](Cc1ccc(-c2ccccc2)cc1)C(=O)O; 1Nal = N[C@@H](Cc1cccc2ccccc12)C(=O)O; 2Nal = N[C@@H](Cc1ccc2ccccc2c1)C(=O)O; NMeNle = CCCC[C@H](NC)C(=O)O; NMeA = CN[C@@H](C)C(=O)O; Sar = CNCC(=O)O
# B1: Compound No. 27 (peptide)
# peptide: {CH2CO}-[1Nal][NMeA]NPHL[Sar]WSW[NMeNle][NMeNle]RCG-NH2
# modifications: thioether N-14
# SMILES: CCCC[C@H]1C(=O)N(C)[C@@H](CCCC)C(=O)N[C@@H](CCCNC(=N)N)C(=O)N[C@H](C(=O)NCC(N)=O)CSCC(=O)N[C@@H](Cc2cccc3ccccc23)C(=O)N(C)[C@@H](C)C(=O)N[C@@H](CC(N)=O)C(=O)N2CCC[C@H]2C(=O)N[C@@H](Cc2c[nH]cn2)C(=O)N[C@@H](CC(C)C)C(=O)N(C)CC(=O)N[C@@H](Cc2c[nH]c3ccccc23)C(=O)N[C@@H](CO)C(=O)N[C@@H](Cc2c[nH]c3ccccc23)C(=O)N1C
# notes: macrocyclic peptide, Formula I series; also called Compound 27
# B2: Compound No. 67 (peptide)
# peptide: FANPHLGWSWFXRCG
# HELM: PEPTIDE1{[O=C(C[*:3])[*:2]].F.[meA].N.P.H.L.[Sar].W.S.W.[meF].[CCCC[C@@H](C(=O)[*:2])N(C)[*:1]].R.C.G.[am]}$PEPTIDE1,PEPTIDE1,1:R3-15:R3$$$V2.0
# SMILES: CCCC[C@H]1C(=O)N[C@@H](CCCNC(=N)N)C(=O)N[C@H](C(=O)NCC(N)=O)CSCC(=O)N[C@@H](Cc2ccccc2)C(=O)N(C)[C@@H](C)C(=O)N[C@@H](CC(N)=O)C(=O)N2CCC[C@H]2C(=O)N[C@@H](Cc2c[nH]cn2)C(=O)N[C@@H](CC(C)C)C(=O)N(C)CC(=O)N[C@@H](Cc2c[nH]c3ccccc23)C(=O)N[C@@H](CO)C(=O)N[C@@H](Cc2c[nH]c3ccccc23)C(=O)N(C)[C@@H](Cc2ccccc2)C(=O)N1C
# notes: macrocyclic peptide, Formula I series; also called Compound 67
# B3: Compound No. 65 (peptide)
# peptide: FANPHLGWSWLXRCG
# HELM: PEPTIDE1{[O=C(C[*:3])[*:2]].F.[meA].N.P.H.L.[Sar].W.S.W.[meL].[CCCC[C@@H](C(=O)[*:2])N(C)[*:1]].R.C.G.[am]}$PEPTIDE1,PEPTIDE1,1:R3-15:R3$$$V2.0
# SMILES: CCCC[C@H]1C(=O)N[C@@H](CCCNC(=N)N)C(=O)N[C@H](C(=O)NCC(N)=O)CSCC(=O)N[C@@H](Cc2ccccc2)C(=O)N(C)[C@@H](C)C(=O)N[C@@H](CC(N)=O)C(=O)N2CCC[C@H]2C(=O)N[C@@H](Cc2c[nH]cn2)C(=O)N[C@@H](CC(C)C)C(=O)N(C)CC(=O)N[C@@H](Cc2c[nH]c3ccccc23)C(=O)N[C@@H](CO)C(=O)N[C@@H](Cc2c[nH]c3ccccc23)C(=O)N(C)[C@@H](CC(C)C)C(=O)N1C
# notes: macrocyclic peptide, Formula I series; also called Compound 65
# B4: Compound No. 19 (peptide)
# peptide: FANPHLGWSWAXRCG
# HELM: PEPTIDE1{[O=C(C[*:3])[*:2]].F.[meA].N.P.H.L.[Sar].W.S.W.[meA].[CCCC[C@@H](C(=O)[*:2])N(C)[*:1]].R.C.G.[am]}$PEPTIDE1,PEPTIDE1,1:R3-15:R3$$$V2.0
# SMILES: CCCC[C@H]1C(=O)N[C@@H](CCCNC(=N)N)C(=O)N[C@H](C(=O)NCC(N)=O)CSCC(=O)N[C@@H](Cc2ccccc2)C(=O)N(C)[C@@H](C)C(=O)N[C@@H](CC(N)=O)C(=O)N2CCC[C@H]2C(=O)N[C@@H](Cc2c[nH]cn2)C(=O)N[C@@H](CC(C)C)C(=O)N(C)CC(=O)N[C@@H](Cc2c[nH]c3ccccc23)C(=O)N[C@@H](CO)C(=O)N[C@@H](Cc2c[nH]c3ccccc23)C(=O)N(C)[C@@H](C)C(=O)N1C
# notes: macrocyclic peptide, Formula I series; also called Compound 19
# B5: Compound No. 28 (peptide)
# peptide: {CH2CO}-[Bip][NMeA]NPHL[Sar]WSW[NMeNle][NMeNle]RCG-NH2
# modifications: thioether N-14
# SMILES: CCCC[C@H]1C(=O)N(C)[C@@H](CCCC)C(=O)N[C@@H](CCCNC(=N)N)C(=O)N[C@H](C(=O)NCC(N)=O)CSCC(=O)N[C@@H](Cc2ccc(-c3ccccc3)cc2)C(=O)N(C)[C@@H](C)C(=O)N[C@@H](CC(N)=O)C(=O)N2CCC[C@H]2C(=O)N[C@@H](Cc2c[nH]cn2)C(=O)N[C@@H](CC(C)C)C(=O)N(C)CC(=O)N[C@@H](Cc2c[nH]c3ccccc23)C(=O)N[C@@H](CO)C(=O)N[C@@H](Cc2c[nH]c3ccccc23)C(=O)N1C
# notes: macrocyclic peptide, Formula I series; also called Compound 28
# B6: Compound No. 24 (peptide)
# peptide: {CH2CO}-F[NMeA]NPHL[Sar]WSW[NMeNle][NMeNle]RC-NH2
# modifications: thioether N-14
# SMILES: CCCC[C@H]1C(=O)N(C)[C@@H](CCCC)C(=O)N[C@@H](CCCNC(=N)N)C(=O)N[C@H](C(N)=O)CSCC(=O)N[C@@H](Cc2ccccc2)C(=O)N(C)[C@@H](C)C(=O)N[C@@H](CC(N)=O)C(=O)N2CCC[C@H]2C(=O)N[C@@H](Cc2c[nH]cn2)C(=O)N[C@@H](CC(C)C)C(=O)N(C)CC(=O)N[C@@H](Cc2c[nH]c3ccccc23)C(=O)N[C@@H](CO)C(=O)N[C@@H](Cc2c[nH]c3ccccc23)C(=O)N1C
# notes: macrocyclic peptide, Formula I series; also called Compound 24
# B7: Compound No. 43 (peptide)
# peptide: {CH2CO}-F[NMeA]GPHL[Sar]WSW[NMeNle][NMeNle]RCG-NH2
# modifications: thioether N-14
# SMILES: CCCC[C@H]1C(=O)N(C)[C@@H](CCCC)C(=O)N[C@@H](CCCNC(=N)N)C(=O)N[C@H](C(=O)NCC(N)=O)CSCC(=O)N[C@@H](Cc2ccccc2)C(=O)N(C)[C@@H](C)C(=O)NCC(=O)N2CCC[C@H]2C(=O)N[C@@H](Cc2c[nH]cn2)C(=O)N[C@@H](CC(C)C)C(=O)N(C)CC(=O)N[C@@H](Cc2c[nH]c3ccccc23)C(=O)N[C@@H](CO)C(=O)N[C@@H](Cc2c[nH]c3ccccc23)C(=O)N1C
# notes: macrocyclic peptide, Formula I series; also called Compound 43
# B8: Compound No. 51 (peptide)
# peptide: {CH2CO}-F[NMeA]NPHD[Sar]WSW[NMeNle][NMeNle]RCG-NH2
# modifications: thioether N-14
# SMILES: CCCC[C@H]1C(=O)N(C)[C@@H](CCCC)C(=O)N[C@@H](CCCNC(=N)N)C(=O)N[C@H](C(=O)NCC(N)=O)CSCC(=O)N[C@@H](Cc2ccccc2)C(=O)N(C)[C@@H](C)C(=O)N[C@@H](CC(N)=O)C(=O)N2CCC[C@H]2C(=O)N[C@@H](Cc2c[nH]cn2)C(=O)N[C@@H](CC(=O)O)C(=O)N(C)CC(=O)N[C@@H](Cc2c[nH]c3ccccc23)C(=O)N[C@@H](CO)C(=O)N[C@@H](Cc2c[nH]c3ccccc23)C(=O)N1C
# notes: macrocyclic peptide, Formula I series; also called Compound 51
# B9: Compound No. 62 (peptide)
# peptide: {CH2CO}-F[NMeA]NPHL[Sar]WSI[NMeNle][NMeNle]RCG-NH2
# modifications: thioether N-14
# SMILES: CCCC[C@H]1C(=O)N(C)[C@@H](CCCC)C(=O)N[C@@H](CCCNC(=N)N)C(=O)N[C@H](C(=O)NCC(N)=O)CSCC(=O)N[C@@H](Cc2ccccc2)C(=O)N(C)[C@@H](C)C(=O)N[C@@H](CC(N)=O)C(=O)N2CCC[C@H]2C(=O)N[C@@H](Cc2c[nH]cn2)C(=O)N[C@@H](CC(C)C)C(=O)N(C)CC(=O)N[C@@H](Cc2c[nH]c3ccccc23)C(=O)N[C@@H](CO)C(=O)N[C@@H]([C@@H](C)CC)C(=O)N1C
# notes: macrocyclic peptide, Formula I series; also called Compound 62
# B10: Compound No. 53 (peptide)
# peptide: {CH2CO}-F[NMeA]NPHLHWSW[NMeNle][NMeNle]RCG-NH2
# modifications: thioether N-14
# SMILES: CCCC[C@H]1C(=O)N(C)[C@@H](CCCC)C(=O)N[C@@H](CCCNC(=N)N)C(=O)N[C@H](C(=O)NCC(N)=O)CSCC(=O)N[C@@H](Cc2ccccc2)C(=O)N(C)[C@@H](C)C(=O)N[C@@H](CC(N)=O)C(=O)N2CCC[C@H]2C(=O)N[C@@H](Cc2c[nH]cn2)C(=O)N[C@@H](CC(C)C)C(=O)N[C@@H](Cc2c[nH]cn2)C(=O)N[C@@H](Cc2c[nH]c3ccccc23)C(=O)N[C@@H](CO)C(=O)N[C@@H](Cc2c[nH]c3ccccc23)C(=O)N1C
# notes: macrocyclic peptide, Formula I series; also called Compound 53
# B11: Compound No. 54 (peptide)
# peptide: {CH2CO}-F[NMeA]NPHLRWSW[NMeNle][NMeNle]RCG-NH2
# modifications: thioether N-14
# SMILES: CCCC[C@H]1C(=O)N(C)[C@@H](CCCC)C(=O)N[C@@H](CCCNC(=N)N)C(=O)N[C@H](C(=O)NCC(N)=O)CSCC(=O)N[C@@H](Cc2ccccc2)C(=O)N(C)[C@@H](C)C(=O)N[C@@H](CC(N)=O)C(=O)N2CCC[C@H]2C(=O)N[C@@H](Cc2c[nH]cn2)C(=O)N[C@@H](CC(C)C)C(=O)N[C@@H](CCCNC(=N)N)C(=O)N[C@@H](Cc2c[nH]c3ccccc23)C(=O)N[C@@H](CO)C(=O)N[C@@H](Cc2c[nH]c3ccccc23)C(=O)N1C
# notes: macrocyclic peptide, Formula I series; also called Compound 54
# B12: Compound No. 55 (peptide)
# peptide: {CH2CO}-F[NMeA]NPHLPWSW[NMeNle][NMeNle]RCG-NH2
# modifications: thioether N-14
# SMILES: CCCC[C@H]1C(=O)N(C)[C@@H](CCCC)C(=O)N[C@@H](CCCNC(=N)N)C(=O)N[C@H](C(=O)NCC(N)=O)CSCC(=O)N[C@@H](Cc2ccccc2)C(=O)N(C)[C@@H](C)C(=O)N[C@@H](CC(N)=O)C(=O)N2CCC[C@H]2C(=O)N[C@@H](Cc2c[nH]cn2)C(=O)N[C@@H](CC(C)C)C(=O)N2CCC[C@H]2C(=O)N[C@@H](Cc2c[nH]c3ccccc23)C(=O)N[C@@H](CO)C(=O)N[C@@H](Cc2c[nH]c3ccccc23)C(=O)N1C
# notes: macrocyclic peptide, Formula I series; also called Compound 55
# B13: Compound No. 61 (peptide)
# peptide: {CH2CO}-F[NMeA]NPHL[Sar]WSM[NMeNle][NMeNle]RCG-NH2
# modifications: thioether N-14
# SMILES: CCCC[C@H]1C(=O)N(C)[C@@H](CCCC)C(=O)N[C@@H](CCCNC(=N)N)C(=O)N[C@H](C(=O)NCC(N)=O)CSCC(=O)N[C@@H](Cc2ccccc2)C(=O)N(C)[C@@H](C)C(=O)N[C@@H](CC(N)=O)C(=O)N2CCC[C@H]2C(=O)N[C@@H](Cc2c[nH]cn2)C(=O)N[C@@H](CC(C)C)C(=O)N(C)CC(=O)N[C@@H](Cc2c[nH]c3ccccc23)C(=O)N[C@@H](CO)C(=O)N[C@@H](CCSC)C(=O)N1C
# notes: macrocyclic peptide, Formula I series; also called Compound 61
# B14: Compound No. 26 (peptide)
# peptide: {CH2CO}-[2Nal][NMeA]NPHL[Sar]WSW[NMeNle][NMeNle]RCG-NH2
# modifications: thioether N-14
# SMILES: CCCC[C@H]1C(=O)N(C)[C@@H](CCCC)C(=O)N[C@@H](CCCNC(=N)N)C(=O)N[C@H](C(=O)NCC(N)=O)CSCC(=O)N[C@@H](Cc2ccc3ccccc3c2)C(=O)N(C)[C@@H](C)C(=O)N[C@@H](CC(N)=O)C(=O)N2CCC[C@H]2C(=O)N[C@@H](Cc2c[nH]cn2)C(=O)N[C@@H](CC(C)C)C(=O)N(C)CC(=O)N[C@@H](Cc2c[nH]c3ccccc23)C(=O)N[C@@H](CO)C(=O)N[C@@H](Cc2c[nH]c3ccccc23)C(=O)N1C
# notes: macrocyclic peptide, Formula I series; also called Compound 26
# Molecular target: T1, human PD-L1 (human, UniProt Q9NZQ7 19-239, limits assumed)
# T1 construct: also called Hu PD-L1; hPD-L1
# T1 sequence (Q9NZQ7 19-239 limits assumed): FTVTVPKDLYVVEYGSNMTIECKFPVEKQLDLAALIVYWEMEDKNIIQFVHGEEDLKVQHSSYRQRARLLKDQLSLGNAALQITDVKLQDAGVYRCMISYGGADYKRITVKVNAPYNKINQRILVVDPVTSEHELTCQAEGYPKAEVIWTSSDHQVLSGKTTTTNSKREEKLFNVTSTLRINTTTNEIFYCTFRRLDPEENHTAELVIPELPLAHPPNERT
# Assay: cell binding assay, inhibition of Hu PD-L1/PD-1 binding
row,IC50 [nM],Binder
1,28,B1
2,143,B2
3,258,B3
4,134,B4
5,82,B5
6,8,B6
7,5330,B7
8,118,B8
9,3410,B9
10,47,B10
11,68,B11
12,3,B12
13,195,B13
14,13,B14
